Laboratory results published in doi:10.1101/2023.12.14.571638, “Structural basis of a regulatory switch in mammalian complex I” (bioRxiv, 2023).

B1: NDUFA8 (natural protein, Bos taurus (bovine), UniProt P42029 1-172, looked up)
chain: MPGIVELPSLEDLKVQEVKVSSSVLKAAAHHYGAQCDKPNKEFMLCRWEEKDPRRCLEEGKLVNQCALEFFRQIKRHCAEPFTEYWTCIDYSGLQLFRRCRKQQAQFDECVLDKLGWVRPDLGDLSKVTKVKTDRPLPENPYHSRARPEPNPEVEGDLKPARHGSRLFFWTM
notes: NDUFA8, supernumerary subunit of respiratory complex I, Bos taurus; endogenous subunit of the purified enzyme
B2: NDUFA13 (natural protein, Bos taurus (bovine), UniProt Q95KV7 1-144, looked up)
chain: MAASKVKQDMPPVGGYGPIDYKRNLPRRGLSGYSMFAVGIGALLFGYWSMMKWNRERRRLQIEDFEARIALMPLLQAEKDRRVLQMLRENLEEEATVMKDVPGWKVGESVFHTTRWVTPMMGELYGLRASEEVLSATYGFIWYT
notes: NDUFA13, supernumerary subunit of respiratory complex I, Bos taurus
B3: NDUFA1 (natural protein, Bos taurus (bovine), UniProt Q02377 1-70, looked up)
chain: MWFEVLPGIAVMGVCLFIPGMATARIHRFSNGGKEKRVAHYPYQWYLMERDRRVSGVNRSYVSKGLENID
notes: NDUFA1, supernumerary subunit of respiratory complex I, Bos taurus; endogenous subunit of the purified enzyme
B4: ND6 (natural protein, Bos taurus (bovine), UniProt P03924 1-175, looked up)
chain: MMLYIVFILSVIFVMGFVGFSSKPSPIYGGLGLIVSGGVGCGIVLNFGGSFLGLMVFLIYLGGMMVVFGYTTAMATEQYPEIWLSNKAVLGAFVTGLLMEFFMVYYVLKDKEVEVVFEFNGLGDWVIYDTGDSGFFSEEAMGIAALYSYGTWLVIVTGWSLLIGVVVIMEITRGN
notes: ND6, core membrane subunit of respiratory complex I, Bos taurus; endogenous subunit of the purified enzyme

Target: T1, ND1 (Bos taurus (bovine), UniProt P03887 1-318)
T1 construct: ND1, core membrane subunit of respiratory complex I (NADH:ubiquinone oxidoreductase), Bos taurus; endogenous subunit of the purified enzyme; also called subunit ND1
Assay: cryo-EM structure; bovine complex I purified in LMNG, reconstituted into proteoliposomes (DOPC:DOPE:cardiolipin 8:1:1, ubiquinone-10; 10 mM MOPS-KOH pH 7.5, 50 mM KCl), on graphene oxide grids; closed, open1 and open2 states, outward- and inward-facing; best map CI-out-closed 2.5 Å
Details: both partners purified

T1 sequence (P03887 whole entry): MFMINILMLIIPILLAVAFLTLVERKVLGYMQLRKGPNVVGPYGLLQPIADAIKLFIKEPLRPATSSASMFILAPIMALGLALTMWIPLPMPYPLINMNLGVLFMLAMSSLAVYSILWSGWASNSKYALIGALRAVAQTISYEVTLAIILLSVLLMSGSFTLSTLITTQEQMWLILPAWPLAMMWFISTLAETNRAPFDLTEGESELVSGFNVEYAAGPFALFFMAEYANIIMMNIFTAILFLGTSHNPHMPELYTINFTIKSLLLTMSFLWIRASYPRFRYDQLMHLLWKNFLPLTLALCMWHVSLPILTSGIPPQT

| Binder | binding result |
| --- | --- |
| B1 | binds |
| B2 | binds |
| B3 | binds |
| B4 | binds |
